Target: recombinant human PD-1 (product No. 10377-H08H, Beijing Yiqiao Shenzhou) (human, UniProt Q15116 25-167)
Assay: ELISA, recombinant human PD-1 coated at 1 ug/mL, control antibody, anti-human IgG-HRP detection
Procedure: The coating concentration was 1 μg/mL. The coating amount was 100 μL per well, and the coating was performed at 4° C. overnight. PBST washing was performed five times. The result was sealed at 300 μL/well using PBST containing 1% BSA, and subjected to incubation for 1 hour at 25° C. PBST washing was performed five times. […] PBST washing was performed five times. Subsequently, 100 μL of the horseradish peroxidase-labeled anti-human IgG antibody (product No. AP309P, available from Chemicon) diluted at 1:2,000 in PBST containing 1% BSA was then added to each well, and the cells were incubated for 1 hour at 25° C. PBST washing was performed five times. 100 μL of the colorimetric substrate TMB was added to each well, and color development was allowed to occur for 10 minutes at room temperature. Color development was stopped by adding 100 μL of 1 M H₂SO₄ to each well. The absorbance at 450 nm was read on a microplate reader.

recombinant human PD-1 (product No. 10377-H08H, Beijing Yiqiao Shenzhou), sequence (Q15116 25-167 limits assumed): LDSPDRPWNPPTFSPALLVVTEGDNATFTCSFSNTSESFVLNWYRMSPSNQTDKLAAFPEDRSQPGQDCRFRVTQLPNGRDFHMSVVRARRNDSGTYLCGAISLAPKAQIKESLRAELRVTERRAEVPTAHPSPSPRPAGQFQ

binding result: binds
B1: PD-1 monoclonal antibody (antibody, V domains shown)
VH: QVQLVQSGAEVKKPGSSVKVSCKASGGTFSSTAISWVRQAPGQGLEWMGGIWPSFGTASYAQKFQGRVTITADESTSTAYMELSSLRSEDTAVYYCARAEYSSTGIFDYWGQGTLVTVSS
VL: DIQMTQSPSSVSASVGDRVTITCRASQGISSWLAWYQQKPGKAPKLLISAASSLQSGVPSRFSGSGSGTDFTLTISSLQPEDFATYYCQQANHLPFTFGGGTKVEIK
notes: also called bivalent monoclonal antibody (anti-PD-1)
